The chains are these.
B1: chimeric anti-5T4 monoclonal antibody 789 (antibody, human IgG1, V domains shown)
VH: QSVEESGGRLVTPGTPLTLTCTASGFSLSSYWMSWVRQAPGKGLEWIGIIAGRGSTYYASWAKGRCTISKTSTTVDLKITSPTTEDTAAYFCARVSSIYYTFNLWGQGTLVTVSS
VL: AQVLTQTPSSVSAAVGGTVTINCQSSQSVYSNNELSWYQQKPGQPPKLLIYYASTLASGVPSRFKGSGSGTQFTLTISGVQSDDAATYYCQGSYYSGSGWYYAFGGGTEVVVK
notes: also called clone 789
B2: chimeric anti-5T4 monoclonal antibody 833 (antibody, IgG1, V domains shown)
VH: QSLEESGGGLVTPGGSLTLTCTGSGIDLSHYVVGWVRQAPGKGLEWIGIIYGSGRTYYANWAKGRFTISKTSTTVDLRIARPTAEDTATYFCARDASVSVYYWGYFDLWGQGTLVTVSS
VL: AYDMTQTPVSVEVAVGGTVTIKCQASQSIGSELAWYQQKPGQPPKLLIYRASTLESGVPSRFSGSGSGTEFTLTISGVESADAATYYCQQGYTYSEIDNAFGGGTEVVVK
notes: also called clone 833
B3: chimeric anti-5T4 monoclonal antibody 868 (antibody, human IgG1, V domains shown)
VH: QSVEESGGRLVTPGTPLTLTCTASGFSLSDYTMGWVRQAPGKGLEWIGIINGYGSTYYANWAKGRFAISKTSTTVDLKITSPATEDTATYFCARGDTGRTYDMHFNLWGQGTLVTVSS
VL: AYDMTQTPASVSAAVGGTVTIKCQASESIRSWLAWYQQKPGQPPKLLIYSASTLASGVSSRFKGSGSGTQFTLTIGDLESADAATYYCQQGYTSSNLDNAFGGGTEVLVK
B4: chimeric anti-5T4 monoclonal antibody 843 (antibody, human IgG1, V domains shown)
VH: QSLEESGGRLVTPGTPLTLTCTASGFSLNNAYMNWVRQAPGKGLEWIGIINTYGSTYFATWAKGRFTFSKTSTTVDLKITSPTTEDTATYFCARAYAPFSTYSHYYGMDLWGPGTLVTVSS
VL: DVVMTQTPSSVSAAVGGTVTIKCQASESIGSWLSWYQQKPGQPPKLLIYEASKLTSGVPSRFKGSGSGTEYTLTISDLESADAATYYCQYTDYGSNYLGTFGGGTEVVVK
B5: chimeric anti-5T4 monoclonal antibody 841 (antibody, human IgG1, V domains shown)
VH: QSLEESGGRLVTPGTPLTLTCKASGFSLSTYWMSWVRQAPGKGLEWIGIMLSYGNTVYANWAKGRFTISKTSSTTVDLKITSPTTEDTATYFCARGLYGGYPNYGVYDLWGQGTLVTVSS
VL: DVVMTQTPASVEAAVGGTVTIKCQASQSISSYLSWYQQKPGQPPKLLIYAASNLASGVSSRFKGSRSGTEYTLTISDLESADAATYYCQCTDYGSNYVGAFGGGTEVVVK
B6: chimeric anti-5T4 monoclonal antibody 835 (antibody, human IgG1, V domains shown)
VH: QSVEESGGRLVTPGTPLTLTCTVSGIDLSSGAMGWVRQAPGKGLEWIGLISSSPITYYANWARGRFTISKTSTTVDLKITSPTTADTATYFCARGYDDYGEIWFNIWGPGTLVTVSL
VL: AIEMTQSPPSLSASVGETVRIRCLAGEDIYSSISWYQQKPGKPPTLLIYGASNLESGVPPRFSGSGSGTDYTLTIGGVQAEDAATYYCLGGWSYSSSLTFGAGTKVEIK
B7: chimeric anti-5T4 monoclonal antibody 899 (antibody, human IgG1, V domains shown)
VH: QSVEESGGRLVTPGTPLTLTCTVSGFSLSSYTMSWVRQAPGKGLEYIGIISSSDGTWYANWVKGRFTISKTSTTVDLKMTSLTTEDTATYFCARDGTGNKYYTWDRLDLWGQGTLVTVSS
VL: NIVMTQTPSPVSGAVGGTVTINCQASQSIYNELSWYQQKPGQPPKLLIYYASTLASGVSSRFKGSGSGTQFTLTISGVESVDAATYYCQQGYSSSNVDNVFGGGTEVVVK
B8: chimeric anti-5T4 monoclonal antibody 848 (antibody, human IgG1, V domains shown)
VH: B7 VH with Y46W, S53I, D54G, G55S, T56I, N60S, V62A, N99S
VL: B7 VL with A51T, N96D
B9: chimeric anti-5T4 monoclonal antibody 845 (antibody, human IgG1, V domains shown)
VH: QSLEESGGRLVTPGTPLTLTCTVSGIDLSSYTMNWVRQAPGKGLEWIGVITSHNTYYASWAKGRFTISKTSTTVDLKITSPTTEDTATYFCARSNYGSTIYYMGGMDPWGPGTLVTVSS
VL: DVVMTQTPASVSAAVGGTVTINCQASQSIGSYLAWYQHQPGQPPKLLIYSASTLESGVSSRFEGSRSGTEYTLTISDLDSADAATYYCQCTDYGASYLGAFGGGTEVVVK
B10: chimeric anti-5T4 monoclonal antibody 825 (antibody, human IgG1, V domains shown)
VH: QSVEESGGRLVTPGTPLTLTCTVSGIDLSSYGMGWVRQAPGKGLEYIGIISRNSVTYYATWAKGRFTISKTSTTVDLKMTSPTTEDTATYFCARRATYSGALGYFDIWGPGTLVTVSF
VL: GYDMTQTPASVSAAVGGTVTINCQASENIYSTLAWYQQKPGQPPKVLIYDAFDLASGVPSRFKGSGSGTEYTLTISGVQSDDAATYYCQQGYSGTNVDNAFGGGTEVVVK
notes: also called clone 825
B11: chimeric anti-5T4 monoclonal antibody 834 (antibody, human IgG1, V domains shown)
VH: QSVEESGGRLVTPGTPLTLTCTVSGFSLSTYSMSWVRQAPGKGLEWIGVISRGGSAYYASWAKGRFTISKTSTTVDLKVTSPTTEDTATYFCARGAISSGYYVYDGMDLWGPGTLVTVSS
VL: DIVMTQTPGSVEAAVGGTVTIKCQASESISSYLAWYQQKPGQPPKFLIYSASTLASGVPSRFKGSGSGTEFTLTISDLESADAATYYCQCTDYGSDYMGAFGGGTGVVVK

Where a chain is given by its changes, count along the chain named.

The first assay concerns the target T1, human 5T4 oncofoetal antigen (human, UniProt Q13641 32-420).
T1 construct: whole, on cells; also called hu 5T4; human 5T4 antigen
T1 sequence (looked up): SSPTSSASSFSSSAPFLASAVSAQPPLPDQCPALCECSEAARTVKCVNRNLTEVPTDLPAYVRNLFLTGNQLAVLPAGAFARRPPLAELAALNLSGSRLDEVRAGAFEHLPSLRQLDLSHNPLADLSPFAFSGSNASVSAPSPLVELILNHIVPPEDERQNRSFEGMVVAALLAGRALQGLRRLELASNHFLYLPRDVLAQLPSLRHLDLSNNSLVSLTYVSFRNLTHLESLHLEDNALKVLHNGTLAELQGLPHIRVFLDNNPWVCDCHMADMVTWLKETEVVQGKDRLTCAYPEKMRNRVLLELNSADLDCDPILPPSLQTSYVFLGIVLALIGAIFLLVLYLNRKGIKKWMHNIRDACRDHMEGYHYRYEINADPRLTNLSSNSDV
The assay can be described thus: flow cytometry, PA-1 cells. The method, then: (§1) 17 antibodies were selected and affinity to 5T4 antigen was measured using MDA-MB-468 cells, PA-1 cells and Chinese Hamster Ovary (CHO) mammalian cells expressing human or cyno 5T4 antigen (Table 2). In the current application the utilized CHO cells are referred to as CHOZN as these CHO cells expressing human or cyno 5T4 antigen were obtained using the CHOZN® Platform of Sigma-Aldrich. CHOZN cells (SAFC) were transiently transfected, using an Amaxa nucleofector device (Lonza) according to the manufacturer's instructions. Standard, commercially available mammalian expression vectors (SAFC, Life Technologies) were used, which contained the full length human and cyno 5T4 antigen coding sequence (according to accession number NP 006661.1 and Q4R8Y9 respectively), preceded by a human CMV promoter. Transiently transfected CHOZN cells were cultured according the manufacturer's instructions, before being used in antibody binding studies. The 17 selected antibodies are characterised by the amino acid sequences according to the following table (Table 1).
(§2) MDA-MB-468 cells, PA-1 cells or CHOZN cells expressing human or cyno 5T4 antigen (100,000 cells/well in a 96-well plate) were washed three times with ice-cold FACS buffer (1×PBS (Lonza) containing 0.2% v/w BSA (Sigma-Aldrich, St. Louis, Mo.)) and 0.02% v/w NaN3 (Sigma-Aldrich), followed by the addition of a concentration range of each primary mAb (50 μl/well) diluted in ice-cold FACS buffer. After an incubation of 30 minutes at 4° C., cells were washed three times with ice-cold FACS buffer and 50 μl/well secondary mAb (AffiniPure F(ab′)2 fragment Goat-anti-human IgG-APC, 1:6,000 dilution, Jackson Immuno Research) was added. After 30 minutes at 4° C., cells were washed twice and resuspended in 150 μl FACS buffer. Fluorescence intensities were determined by flow cytometry (BD FACSVerse, Fanklin Lakes, N.J.) and indicated as the median fluorescence intensity (MFI). Curves were fitted by nonlinear regression using the sigmoidal dose-response equation with variable slope (four parameters) in GraphPad Prism (version 5.01/6.01 for Windows, GraphPad, San Diego, Calif.). EC₅₀ values were calculated as the concentration in μg/ml that gives a response half way between bottom and top of the curve, when using a 4 parameter logistic fit.
A general note: A flow cytometer gives signals particle by particle.
For the molecule B1, the concentration giving a half-maximal response (EC50) stood at 0.03 µg/mL.

B2: the EC50 was determined as 0.02 µg/mL.

In turn, B3 returned an EC50 of 0.04 µg/mL.

B4 gave an EC50 of 0.04 µg/mL.

The molecule B5 displayed an EC50 of 0.02 µg/mL.

In turn, B6 showed an EC50 of 0.08 µg/mL.

For B7, the EC50 was 0.05 µg/mL.

Take B8: the half-maximal effective concentration (EC50) was determined as 0.05 µg/mL.

Turning to B9, the midpoint of the response, the EC50, lay at 0.05 µg/mL.

The molecule B10 registered an EC50 of 0.03 µg/mL.

Molecule B11 yielded an EC50 of 0.05 µg/mL.

In another assay the target is T1, human 5T4 oncofoetal antigen. The assay can be described thus: flow cytometry, MDA-MB-468 cells. On the procedure:
as §1, §2
For B1, the EC50 came out at 0.1 µg/mL.

For B2, the EC50 came out at 0.04 µg/mL.

For the molecule B3, the EC50 was 0.14 µg/mL.

In the case of B4, the midpoint of the response, the EC50, lay at 0.08 µg/mL.

The molecule B5 came in with an EC50 of 0.1 µg/mL.

Regarding B6, the midpoint of the response, the EC50, lay at 0.09 µg/mL.

Molecule B7 yielded an EC50 of 0.09 µg/mL.

The molecule B8 yielded an EC50 of 0.09 µg/mL.

Molecule B9 displayed an EC50 of 0.11 µg/mL.

B10 had an EC50 of 0.07 µg/mL.

Consider B11, for which the EC50 stood at 0.13 µg/mL.

In the next assay the target is T2, cynomolgus monkey 5T4 antigen (cynomolgus monkey, UniProt Q4R8Y9 35-420).
T2 construct: whole, on cells; also called cyno 5T4
T2 sequence (looked up): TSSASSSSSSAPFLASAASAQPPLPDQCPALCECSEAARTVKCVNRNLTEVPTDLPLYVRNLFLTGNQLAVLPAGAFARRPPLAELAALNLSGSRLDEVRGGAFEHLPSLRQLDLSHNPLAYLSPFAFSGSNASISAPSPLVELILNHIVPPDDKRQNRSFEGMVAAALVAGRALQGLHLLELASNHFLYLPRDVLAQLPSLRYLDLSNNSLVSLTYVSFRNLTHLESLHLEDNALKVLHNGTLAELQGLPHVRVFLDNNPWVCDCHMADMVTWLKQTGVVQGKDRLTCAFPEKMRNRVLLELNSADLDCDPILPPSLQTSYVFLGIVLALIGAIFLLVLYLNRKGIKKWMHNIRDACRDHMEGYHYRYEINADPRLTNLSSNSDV
In words: flow cytometry, CHOZN cells expressing cyno 5T4. On the procedure: as §2
B1: the “fold improvement of binding compared to H8 on cyno 5T4” value (“fold improvement of binding” for short) was determined as 32 fold.

In the case of B2, the “fold improvement of binding” value was 32 fold.

For the molecule B3, the “fold improvement of binding” value came out at 32 fold.

B4: the “fold improvement of binding” value was 32 fold.

As to B5, the “fold improvement of binding” value came out at 32 fold.

In the case of B6, the “fold improvement of binding” value was determined as 32 fold.

As to B7, the “fold improvement of binding” value amounted to 32 fold.

Consider B8, for which the “fold improvement of binding” value is 32 fold.

For the molecule B9, the “fold improvement of binding” value turned out to be 32 fold.

Regarding B10, the “fold improvement of binding” value was 32 fold.

B11: the “fold improvement of binding” value amounted to 32 fold.

Another assay concerns the target T1, human 5T4 oncofoetal antigen. The assay can be described thus: flow cytometry, CHOZN cells expressing hu 5T4. The method, then:
as §1, §2
The molecule B1 returned an EC50 of 0.27 µg/mL.

Molecule B2 returned an EC50 of 0.14 µg/mL.

B3 returned an EC50 of 0.22 µg/mL.

B4: the EC50 came to 0.21 µg/mL.

Consider B5, for which a half-maximal effect (EC50) was put at 0.24 µg/mL.

As for B6, the EC50 was 0.17 µg/mL.

As for B7, a half-maximal effect (EC50) was put at 0.17 µg/mL.

In turn, B8 yielded a 50% effective concentration (EC50) of 0.17 µg/mL.

In turn, B9 yielded an EC50 of 0.2 µg/mL.

B10 had an EC50 of 0.13 µg/mL.

Regarding B11, the EC50 was 0.19 µg/mL.

The target in a further assay is T2, cynomolgus monkey 5T4 antigen. In words: flow cytometry, CHOZN cells expressing cyno 5T4. The source holds these as a separate data set. On the procedure: as §1, §2
As to B1, it took 0.15 µg/mL to reach a half-maximal effect (EC50).

Consider B2, for which the response was half-maximal at 0.08 µg/mL (EC50).

Molecule B3 returned an EC50 of 0.17 µg/mL.

As for B4, the midpoint of the response, the EC50, lay at 0.21 µg/mL.

The molecule B5 registered an EC50 of 0.14 µg/mL.

With B6, a half-maximal effect (EC50) was put at 0.18 µg/mL.

With B7, the EC50 is 0.18 µg/mL.

As to B8, the EC50 is 0.12 µg/mL.

The molecule B9 registered an EC50 of 0.17 µg/mL.

As to B10, the EC50 worked out at 0.14 µg/mL.

With B11, the EC50 is 0.13 µg/mL.

By EC50 is commonly meant the concentration giving half of the maximal effect.
